{
  "source": "IntAct's records for PubMed 35512704",
  "parents": {"B1": {"name": "Speckle-type POZ protein (Homo sapiens), O43791 (parent)", "chain": "MSRVPSPPPPAEMSSGPVAESWCYTQIKVVKFSYMWTINNFSFCREEMGEVIKSSTFSSGANDKLKWCLRVNPKGLDEESKDYLSLYLLLVSCPKSEVRAKFKFSILNAKGEETKAMESQRAYRFVQGKDWGFKKFIRRDFLLDEANGLLPDDKLTLFCEVSVVQDSVNISGQNTMNMVKVPECRLADELGGLWENSRFTDCCLCVAGQEFQAHKAILAARSPVFSAMFEHEMEESKKNRVEINDVEPEVFKEMMCFIYTGKAPNLDKMADDLLAAADKYALERLKVMCEDALCSNLSVENAAEILILADLHSADQLKTQAVDFINYHASDVLETSGWKSMVVSHPHLVAEAYRSLASAQCPFLGPPRKRLKQS"}},
  "data": [
    {"variants_of": "B1", "conditions": "with sox2_human SOX2, P48431", "values": [
      {"variant": "F133V", "effect of a mutation on the interaction": "with no effect"}
    ]},
    {"variants_of": "B1", "conditions": "with src_human SRC", "values": [
      {"variant": "F133V", "effect of a mutation on the interaction": "with no effect"}
    ]},
    {"variants_of": "B1", "conditions": "with whr1_human WHR1, P49842", "values": [
      {"variant": "F133V", "effect of a mutation on the interaction": "with no effect"}
    ]},
    {"variants_of": "B1", "conditions": "with stk38_human STK38, Q15208", "values": [
      {"variant": "F133V", "effect of a mutation on the interaction": "with no effect"}
    ]},
    {"variants_of": "B1", "conditions": "with eloc_human ELOC", "values": [
      {"variant": "F133V", "effect of a mutation on the interaction": "with no effect"}
    ]},
    {"variants_of": "B1", "conditions": "with tfe2_human TCF3, P15923", "values": [
      {"variant": "F133V", "effect of a mutation on the interaction": "with no effect"}
    ]},
    {"variants_of": "B1", "conditions": "with tead1_human TEAD1, P28347", "values": [
      {"variant": "F133V", "effect of a mutation on the interaction": "with no effect"}
    ]},
    {"variants_of": "B1", "conditions": "with tead3_human TEAD3, Q99594", "values": [
      {"variant": "F133V", "effect of a mutation on the interaction": "with no effect"}
    ]},
    {"variants_of": "B1", "conditions": "with tead4_human TEAD4, Q15561", "values": [
      {"variant": "F133V", "effect of a mutation on the interaction": "with no effect"}
    ]},
    {"variants_of": "B1", "conditions": "with tgfr2_human TGFBR2, P37173", "values": [
      {"variant": "F133V", "effect of a mutation on the interaction": "with no effect"}
    ]},
    {"variants_of": "B1", "conditions": "with tnr14_human TNFRSF14, Q92956", "values": [
      {"variant": "F133V", "effect of a mutation on the interaction": "with no effect"}
    ]},
    {"variants_of": "B1", "conditions": "with tpx2_human TPX2, Q9ULW0", "values": [
      {"variant": "F133V", "effect of a mutation on the interaction": "with no effect"}
    ]},
    {"variants_of": "B1", "conditions": "with tsc2_human TSC2, P49815", "values": [
      {"variant": "F133V", "effect of a mutation on the interaction": "with no effect"}
    ]},
    {"variants_of": "B1", "conditions": "with tshr_human TSHR", "values": [
      {"variant": "F133V", "effect of a mutation on the interaction": "with no effect"}
    ]},
    {"variants_of": "B1", "conditions": "with vegfa_human VEGFA", "values": [
      {"variant": "F133V", "effect of a mutation on the interaction": "with no effect"}
    ]},
    {"variants_of": "B1", "conditions": "with vhl_human VHL", "values": [
      {"variant": "F133V", "effect of a mutation on the interaction": "with no effect"}
    ]},
    {"variants_of": "B1", "conditions": "with wee1_human WEE1, P30291", "values": [
      {"variant": "F133V", "effect of a mutation on the interaction": "with no effect"}
    ]},
    {"variants_of": "B1", "conditions": "with wwtr1_human WWTR1, Q9GZV5", "values": [
      {"variant": "F133V", "effect of a mutation on the interaction": "with no effect"}
    ]},
    {"variants_of": "B1", "conditions": "with xpo1_human XPO1, O14980", "values": [
      {"variant": "F133V", "effect of a mutation on the interaction": "with no effect"}
    ]},
    {"variants_of": "B1", "conditions": "with cblb_human CBLB", "values": [
      {"variant": "F133V", "effect of a mutation on the interaction": "causing an interaction"}
    ]},
    {"variants_of": "B1", "conditions": "with jun_human JUN", "values": [
      {"variant": "F133V", "effect of a mutation on the interaction": "causing an interaction"}
    ]},
    {"variants_of": "B1", "conditions": "with kdm6a_human KDM6A", "values": [
      {"variant": "F133V", "effect of a mutation on the interaction": "causing an interaction"}
    ]},
    {"variants_of": "B1", "conditions": "with pax5_human PAX5, Q02548", "values": [
      {"variant": "F133V", "effect of a mutation on the interaction": "causing an interaction"}
    ]},
    {"variants_of": "B1", "conditions": "with PIK3C2B", "values": [
      {"variant": "F133V", "effect of a mutation on the interaction": "causing an interaction"}
    ]},
    {"variants_of": "B1", "conditions": "with e2f5_human E2F5, Q15329", "values": [
      {"variant": "F133V", "effect of a mutation on the interaction": "causing an interaction"}
    ]},
    {"variants_of": "B1", "conditions": "with cul3_human CUL3, Q13618", "values": [
      {"variant": "F133V", "effect of a mutation on the interaction": "increasing interaction strength"}
    ]},
    {"variants_of": "B1", "conditions": "with etv1_human ETV1, P50549", "values": [
      {"variant": "F133V", "effect of a mutation on the interaction": "decreasing interaction strength"}
    ]}
  ]
}
